In patent US20100092497A1, “METHODS OF IMMUNE OR HAEMATOLOGICAL ENHANCEMENT, INHIBITING TUMOUR FORMATION OR GROWTH, AND TREATING OR PREVENTING CANCER” (priority 2006, published 2010):

Key:
[1] = system: EL-4 T cell thymic lymphoma; assay: EL-4 tumour challenge in mice fed experimental diets (tumour growth, rejection, response to paclitaxel); type: in vivo, C57BL/6 mice; settings: for tumour response after paclitaxel: paclitaxel 30 mg/Kg i.p. at ~0.6 cm; for rank of efficacy in sensitising tumours to paclitaxel: diet 20 g Lf per 2.4 Kg plus paclitaxel 30 mg/Kg
EL-4 target cells = assay: Anti-tumour cytolytic activity of splenocytes (CTL assay); type: cell-based, mouse; settings: for increase in anti-tumour cytolytic activity of splenocytes compared to control mice: Example 1, day 77; for increase in anti-tumour cytolytic activity of splenocytes: Example 2, after paclitaxel
Method: Splenocytes were harvested 28 days following tumour cell injection, as specified. They were incubated at 37° C. with EL-4 target cells in graded E:T ratios in 96-well round-bottom plates. After a 4-hour incubation, 50 μl of supernatant was collected, and lysis was measured using the Cyto Tox 96 Assay Kit (Promega, Madison, Wis., USA). Background controls for non-specific target and effector cell lysis were included. After background subtraction, percentage of cell lysis was calculated using the formula: 100×(experimental-spontaneous effector-spontaneous target/maximum target-spontaneous target).

IL-18 = settings: as reported in WO 03/099323; cited from earlier work
[2] = 20 g Lf per 2.4 Kg diet in combination with paclitaxel treatment

B1: Fe-saturated Lf: Bovine lactoferrin of ~100% Fe saturation prepared with ferric nitrilo-triacetate (protein, UniProt P24627 20-708, looked up)
Lactotransferrin: APRKNVRWCTISQPEWFKCRRWQWRMKKLGAPSITCVRRAFALECIRAIAEKKADAVTLDGGMVFEAGRDPYKLRPVAAEIYGTKESPQTHYYAVAVVKKGSNFQLDQLQGRKSCHTGLGRSAGWIIPMGILRPYLSWTESLEPLQGAVAKFFSASCVPCIDRQAYPNLCQLCKGEGENQCACSSREPYFGYSGAFKCLQDGAGDVAFVKETTVFENLPEKADRDQYELLCLNNSRAPVDAFKECHLAQVPSHAVVARSVDGKEDLIWKLLSKAQEKFGKNKSRSFQLFGSPPGQRDLLFKDSALGFLRIPSKVDSALYLGSRYLTTLKNLRETAEEVKARYTRVVWCAVGPEEQKKCQQWSQQSGQNVTCATASTTDDCIVLVLKGEADALNLDGGYIYTAGKCGLVPVLAENRKSSKHSSLDCVLRPTEGYLAVAVVKKANEGLTWNSLKDKKSCHTAVDRTAGWNIPMGLIVNQTGSCAFDEFFSQSCAPGADPKSRLCALCAGDDQGLDKCVPNSKEKYYGYTGAFRCLAEDVGDVAFVKNDTVWENTNGESTADWAKNLNREDFRLLCLDGTRKPVTEAQSCHLAVAPNHAVVSRSDRAAHVKQVLLHQQALFGKNGKNCPDKFCLFKSETKNLLFNDNTECLAKLGGRPTYEEYLGTEYVTAIANLKKCSTSPLLEACAFLTR
modifications: iron-saturated (holo)
notes: Bovine lactoferrin of ~100% Fe saturation prepared with ferric nitrilo-triacetate
In the case of B1, the “tumour response after paclitaxel in mice on Lf diet” value ([1]; Example 1, diet 20 g Lf per 2.4 Kg plus paclitaxel 30 mg/Kg i.p. at tumours ~0.6 cm) is reported as “regressed to less than half their size within two weeks of administering paclitaxel, and disappeared altogether a week later”, the “mice that completely rejected the tumour challenge” value ([1]; Example 1, diet with 20 g of Lf per 2.4 Kg, ten mice) is reported as “one of ten” and the “mice that completely rejected the tumour challenge” value ([1]; Example 2, 1 g Fe-Lf diet) is reported as “one of ten”. For the same molecule, the “tumour growth rate compared to control diet” value ([1]; Example 2, 5 and 25 g per 2.4 Kg of diet) was “grew significantly (p<0.05 at days 35-49) more slowly”, the “mice that completely rejected the tumour challenge” value ([1]; Example 2, 5 g Fe-Lf diet) was “two of ten” and the “mice that completely rejected the tumour challenge” value ([1]; Example 2, 25 g Fe-Lf diet) was “three of ten”. For the same molecule, the “tumour response after paclitaxel” value ([1]; Example 2, 100 g per 2.4 Kg of diet) was “regressed over two weeks, but then re-grew”, the “tumour response after paclitaxel” value ([1]; Example 2, all but the 100 g Fe-Lf diet (1, 5, 25 g per 2.4 Kg)) was “rapidly regressed and completely disappeared over the following three to four weeks” and the “tumour growth rate compared to control diet” value ([1]; Example 2, lowest and highest doses (1 and 100 g per 2.4 Kg of diet)) was “did not differ greatly from that of mice fed the control diet”. The “increase in anti-tumour cytolytic activity of splenocytes compared to control mice” value (“increase … to control mice” for short) (EL-4 target cells; [2]) was 6.5 fold, the “increase … to control mice” value (EL-4 target cells; the one mouse which completely resisted the tumour challenge) was 6 fold and the “increase in anti-tumour cytolytic activity of splenocytes” value (EL-4 target cells; 5 g diet) was 6.7 fold. The “increase in anti-tumour cytolytic activity of splenocytes” value (EL-4 target cells; 25 g diet) was 7 fold, the “increase in anti-tumour cytolytic activity of splenocytes” value (EL-4 target cells; 100 g diet) was 1.5 fold and the “increase in anti-tumour cytolytic activity of splenocytes, agent by itself” value (EL-4 target cells; Example 4, high dose vitamin D (45.2 mg/Kg) by itself or Fe-saturated Lf) was 1.9 fold.

B2: 50% Fe-saturated Lf: Bovine lactoferrin supplemented with Fe to ~50% saturation (protein, UniProt P24627 20-708, looked up)
Lactotransferrin: B1 Lactotransferrin
modifications: ~50% iron-saturated
With B2 the “rank of efficacy in sensitising tumours to paclitaxel” value (“rank of efficacy” for short) ([1]; Example 1) was 50% Fe-saturated Lf>native Lf>apoLf and the “increase … to control mice” value (EL-4 target cells; [2]) was 1.5 fold.

B3: apoLf: Bovine lactoferrin with Fe removed by citric acid chelation (protein, UniProt P24627 20-708, looked up)
Lactotransferrin: B1 Lactotransferrin
modifications: iron-free (apo)
notes: Bovine lactoferrin with Fe removed by citric acid chelation
In the case of B3, the “rank of efficacy” value ([1]; Example 1) is reported as 50% Fe-saturated Lf>native Lf>apoLf and the “increase … to control mice” value (EL-4 target cells; [2]) is reported as 2.4 fold.

B4: bovine lactoferrin: Single-chain iron-binding glycoprotein of 78 kDa present in bovine milk (protein, UniProt P24627 20-708, looked up)
Lactotransferrin: B1 Lactotransferrin
In the case of B4, the “intestinal IL-18 levels compared to recombinant human lactoferrin” value (IL-18) is given as “lesser increase” and the “serum levels of IL-18” value (IL-18) is given as “did not increase”.

B5: native Lf: Bovine lactoferrin of greater than 90% purity from Fonterra, native Fe saturation (protein, UniProt P24627 20-708, looked up)
Lactotransferrin: B1 Lactotransferrin
For B5, the “rank of efficacy” value ([1]; Example 1) was 50% Fe-saturated Lf>native Lf>apoLf and the “increase … to control mice” value (EL-4 target cells; [2]) was 3.4 fold.
